Experimental data from the RNAGym collection of RNA variant scans (doi:10.1073/pnas.2313332121).
Variants at the floor of the assay were thinned out.

B1: TPR 5TU (parent)
chain: GGAUCUUCUCGAUCUAACAAAAAAGACAAAUCUGCCACAAAGCUUGAGAGCAUCUUCGGAUGCAGAGGCGGCAGCCUUCGGUGGCGCGAUAGCGCCAACGUUCUCAACUAUGACACGCAAAACGCGUGCUCCGUUGAAUGGAGUUUAUCAUG

Variants of: B1
Experiment: polymerase ribozyme fitness, log enrichment relative to wild type (log ratio); higher = more active; in vitro selection for triplet polymerase activity
In short: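 After PCR construction and transcription, each subunit's mutant library from a heterodimeric triplet polymerase ribozyme was annealed with a biotinylated primer, the partner subunit and triplets. Incubation was frozen, at −7 °C, and extended constructs were gel-excised, bound to streptavidin beads and amplified by RT-PCR, in one selection round done in triplicate. Fitness is the logarithm of a genotype's enrichment divided by that of the wild type, from inverse-variance-weighted replicate averages of Illumina-sequenced inputs and outputs. The base of the logarithm is 2, and genotypes needed ≥10 input reads and ≥1 read per output.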

Variant | polymerase ribozyme fitness (log ratio)
U77A G94C A98U | ≤ -4.2
G81A A107U | -3.89
G74C G83A C95U G136A | ≤ -4.2
A73G C85A G124A | -1.16
U77G G92U | -3.92
C76U C87U U102C | -1.82
C76A A98U G136A U145A | 0.194
U78G C99G C103A U109G | ≤ -4.2
A73G G141A | -0.252
G71C C87A G128U C131U G152U | ≤ -4.2
A73C A142C | ≤ -4.2
C76A A107G U145C | ≤ -4.2
C76U U101A | -1.35
G81A A106U | -1.09
U77G G84C U148G | ≤ -4.2
C76A A121G | 0.0173
C76A U82G U146A | -0.356
C76U U144A | -1.08
A73U C87U G92A | 0.224
C75U C95U C96U | -0.218
A73G C85U U102G G124A | ≤ -4.2
G80A G88C A113U C116U U148A | ≤ -4.2
G74U C96A C118U | -3.97
G70U G92U A98G A147C | ≤ -4.2

Variant | polymerase ribozyme fitness (log ratio)
A73G G92C | -0.498
C76A G86C C116G C123A | -2.66
G80A G84A C116A U135G | ≤ -4.2
C79A C87G | ≤ -4.2
U77G A89C U104C | ≤ -4.2
C76U A121U | 0.67
C79U A98G | -3.44
U77G G84A | ≤ -4.2
C75U C85U A106C A122C U135A U145A | -3.69
G80U C114U U144C | -3.95
C76U C96A | 0.322
C75G G92U | -2.52
C72U U77C C96A A110G | ≤ -4.2
U77C C95U G141A | ≤ -4.2
G70U C131U A137G | -4.05
U78G U111G A113U | ≤ -4.2
C76A G136A | 0.971
G70A C93A C103G | ≤ -4.2
G71C U109A U111G | ≤ -4.2
U78G G88U | ≤ -4.2
C76A G143U | -3.02
C72A C93G C95G | ≤ -4.2
U78G C85G G140A | ≤ -4.2
C75U A98G G112C A122U | ≤ -4.2

Variant | polymerase ribozyme fitness (log ratio)
G81A C87U A97C U101A U104G C116U | -4.01
C72G U101G | ≤ -4.2
G80A G126A | -0.283
G80U A91C A106U C132G | ≤ -4.2
G70C C87A G140A | ≤ -4.2
G81A C85G | -1.86
U77A U134G | ≤ -4.2
A73G G126A | -0.377
C75G C93A A113U A142G | -4.17
C75U G141C | -1.98
G81A G94A G143U | -2.83
C76A A89C | -0.238
U78C A120U G133U G141A | -3.21
A73G C96U | -0.103
U77A G86A C116G A121C | ≤ -4.2
C75G C95U | -2.19
G71C C129A | ≤ -4.2
C72U A98G U134C | -0.362
A73G U101C | 0.659
G74C C99U A142U U146A | ≤ -4.2
G74A A91C A115U G141A A147C U148G | ≤ -4.2
G81A G86A C99G | -1.98
A73G G86A A98U G117U C149U | -4.18
C75U G92U C105G A115U | -4.17

Variant | polymerase ribozyme fitness (log ratio)
C75G C96U | -3.61
C75G C96A | -3.52
G71A U144A A147C | ≤ -4.2
G71U A89U C95A | -3.94
G81A A97G C125U | -0.572
A73G A91U | ≤ -4.2
C72U C93U A97U A115U | -3.88
G81A G86A A97C | -0.925
G81A U144C | -1.41
G74C A147C | -4.06
A73G A119C | -0.028
G81A A120U G128A | -3.29
U78G C96U A107U G141C A150G | ≤ -4.2
G71U G84A A106U C118A G152A | ≤ -4.2
C75U A91G C99U | -3.56
G71C U102G G133C G141C | ≤ -4.2
C76G C93U | ≤ -4.2
C76U C87A A91G A107U G126A U145A | ≤ -4.2
A73G G80U G94U U102C U127C | ≤ -4.2
C76U A119C C123U | 0.258
A73C C85A A110C A119U G136U | ≤ -4.2
C75A U90C C95U A107G U127G G141C | ≤ -4.2
C76A U145G | -0.329
A73G C93G U130C | -3.08

Variant | polymerase ribozyme fitness (log ratio)
A73U C85U C103G C105G C116U A142G | ≤ -4.2
C75G U78G A115G | ≤ -4.2
G71U C85G U134G U139G | ≤ -4.2
A73U A122G | -0.995
G74A C85A U90C G141A U148C | ≤ -4.2
G70C G83A C87U G117C | -3.9
G80U C108G | ≤ -4.2
A73G U77G C103G G136U | ≤ -4.2
G81A G92A U101A | -3.21
G74A G92C | -2.84
A73G G83C | -2.56
C72U A91U A106C A115G A119U G143A U145G U151G | ≤ -4.2
C72G C105U | -3.5
C76G A106G G133A | ≤ -4.2
A73U U82A C95U | -1.04
C75U A107G A142G | ≤ -4.2
G80A C99G U127C | -2.19
C75A G86A A97G G136U | ≤ -4.2
A73C C95U | -2.49
G80U A91G A110G | ≤ -4.2
C75A A89U G143C | ≤ -4.2
C76G C96A U104G G112C | ≤ -4.2
A73U A91U A106C G136C | ≤ -4.2
C72U A89U A122U U146A | -0.532

Variant | polymerase ribozyme fitness (log ratio)
C76U G86A | -0.246
C76U C118A | -2.21
C76A C87G C93U | ≤ -4.2
C75U G84U C99U A115C | -3.35
G71C C116U | -2.51
C76U C85U U101C U145G | -0.2
C79U G140U | -3.68
G81A G133U | -3.84
G81A G133C | -3.84
A73G A142G | -1.38
G71U A73U A97G U145G | ≤ -4.2
C76A C85A G92A G94U C103A C108U A122C | ≤ -4.2
C75U G81A C85A C95G A98U | -3.71
C79U U134A | -4.05
C72G C99G U139A | ≤ -4.2
C72U A73C A98G C118A G124C U135C U139A | ≤ -4.2
C75G A106C C108A | ≤ -4.2
U77A G88U C103G U151C | ≤ -4.2
U78A G81A C93G A97U U151C | ≤ -4.2
A73U G84A | -2.32
A73G G143A | -0.82
A73U G84A C108G G141A U145C | ≤ -4.2
C76A G83A U134G | -3.45
C76A A137G | -1.07

Variant | polymerase ribozyme fitness (log ratio)
A73C G92C | -3.64
C72U C93U U111C A119U A142G | ≤ -4.2
A73C G92A U101G | ≤ -4.2
G71C A73C C108U U146C C149G | ≤ -4.2
C76G C85G G92A A120C C129U | ≤ -4.2
A73U C75G U78A A89G C93G C95A U146G | ≤ -4.2
C76U C79U G83U G94A C105U C118G C132G G136A | ≤ -4.2
C75G C76U A97U G141C | ≤ -4.2
G80U C114U | -2.31
G80C G92U | -3.97
A73U G84U G152A | -3.83
C72U A73U G83A | -2.51
G71C U77A U90C C103A U104G C131G | ≤ -4.2
C76A C96U A121C | 0.584
A73G U78A C116A A138G | ≤ -4.2
C76A C85G C87U G141C A142C | ≤ -4.2
C76U U78A A107U G126A | ≤ -4.2
C76A C87U | -2.16
A73U C108A A110C G133A | ≤ -4.2
G70C G80A A91U U104C A120U | ≤ -4.2
C75G A113U | ≤ -4.2
C72G A147U | -3.16
C76A A107G C123U A142C | -3.65
